Patent US20260102420A1, “CANCER IMMUNOTHERAPY” (Hoffmann-La Roche Inc., priority 2022, published 2026)
Read-outs that look alike come from different tables or passages of the source.

Tests used:
[1] = test system: CEA expressing metastatic CRCs; conditions: cited from earlier work
[2] = test system: CD8+ and CD4+ T cells; assay: Intra-tumor T cell activation marker analysis by flow cytometry; assay type: in vivo, mice; conditions: UAP1 KO groups, not in wt; 32 days post tumor injection; FIGS. 12A and 12B
Procedure: FIGS. 12A and 12B. 32 days post tumor injection, scouts were taken for intra-tumor T cell activation marker analysis. […] Data were obtained using flow cytometry. P values were calculated using two-tailed paired Student t-test. *P<0.05, **P<0.01
To confirm that the observed effect was due to the involvement of the endogenous mouse immune system, the experiment was repeated in NSG immunodeficient mice.

[3] = test system: A549; assay: T cell-mediated killing assay, A549 wt vs UAP1 KO; assay type: cell-based, human; conditions: FIG. 3C
Procedure: FIGS. 3A, 3B, 3C and 3D. Tumor intrinsic UAP1 regulates TCB-mediated cytotoxicity in vitro. T cell-mediated killing assay. UAP1 knockout cells and wt cells for FIG. 3A MKN45 with CEA-TCB, FIG. 3B MKN45 with EpCAM-TCB, FIG. 3C A549 with CEA-TCB and FIG. 3D B16F10 with Tyrp1-TCB were used and measured was the cell count of tumor cells over time in an incucyte. Graphs show mean±SEM. P values were calculated using two-tailed paired Student t-test. *P<0.05, **P<0.01
25000 MKN45-nuclight red (NLR), 20000 A549-hCEA and 10000 B16F10-NLR tumor cells (wt or UAP1 ko) were seeded in one well of a 96 well-plate. Afterwards TCBs or siinfekl were given at the indicated concentrations. […] For MKN45-NLR and B16F10-NLR, T cell-mediated killing was calculated based on the red fluorescent signal coming from the tumor cells. All values were first transformed to fold-change to time 0, and % specific lysis was calculated as follows: […]
For A549-hCEA, the cytotox-green reagent (sartorius) was added to the co-culture at 1:16000 dilution and T-cell mediated killing was assesses by measuring green fluorescent count in each well. All values were first transformed to fold-change to time 0, and then % normalized green signal was calculated as follows: [(Green fluorescent counts TCB/Green fluorescent counts control TCB)×100]. […] T-cell mediated killing was measured as above. […]

[4] = test system: MKN45 tumors; assay: In vivo cancer model, MKN45 wt or UAP1 KO tumors in stem cell humanized NSG mice
Procedure: FIGS. 8A, 8B, 8C, 8D, and 8E. Deletion of UAP1 sensitizes MKN45 tumors to immunotherapy. FIG. 8A: Tumor growth curves of MKN45 wt and UAP1 KO cell in stem cell humanized NSG mice (huNSG). Animals were dosed either with vehicle control, 0.2 mg/kg or 0.4 mg/kg CEA-TCB. Time point of first dosing at day 15 as indicated. Tumor volume was measured with a caliper. Mice per group (n=10). FIG. 8B: Tumor volume ratio of TCB therapy groups and vehicle control groups for every time point after the first TCB treatment. FIG. 8C: Tumor growth curves for individual mice. Two-way-ANOVA statistical analysis was done with Graphpad Prism software. FIG. 8D and FIG. 8E show the measured individual tumor volumes over time within the treatment groups corresponding to the average values shown in FIGS. 8A and FIG. 8B.
Immunocompetent C57BL/6J and NOD.Cg-PrkdcscidIL-2rgtm1Wjl/SzJ (NSG) mice were obtained from Charles River Laboratories. All animal studies were performed under local Swiss government ethical approval and regulations (license ZH183/2020) according to international FELASA and national GV-Solas and TierSchG guidelines, respectively. […]
B16F10 and MKN45 wtl and UAP1 KO cells were trypsinized, washed and resuspended using a 1:1 mixture of tissue culture medium and Matrigel in a total volume of 100 μl. […] Tumors were measured twice weekly and tumor volume (mm3) was determined using the formula 0.5×length×width2. […]

B1: cibisatamab (antibody, chains of the INN, looked up, V domains shown)
VH: QVQLVQSGAEVKKPGASVKVSCKASGYTFTEFGMNWVRQAPGQGLEWMGWINTKTGEATYVEEFKGRVTFTTDTSTSTAYMELRSLRSDDTAVYYCARWDFAYYVEAMDYWGQGTTVTVSS
VL: DIQMTQSPSSLSASVGDRVTITCKASAAVGTYVAWYQQKPGKAPKLLIYSASYRKRGVPSRFSGSGSGTDFTLTISSLQPEDFATYYCHQYYTYPLFTFGQGTKLEIK
VH2: B1 VH
VL2: QAVVTQEPSLTVSPGGTVTLTCGSSTGAVTTSNYANWVQEKPGQAFRGLIGGTNKRAPGTPARFSGSLLGGKAALTLSGAQPEDEAEYYCALWYSNLWVFGGGTKLTVL
- patients with radiological shrinkage ([1]; in combination with PD-L1-inhibiting antibodies, 5/10 patients): 50%
- patients with radiological shrinkage ([1]; monotherapy, 4/36 patients, failed at least two prior chemotherapy regimens): 11%
- expression of the activation/exhaustion marker (Tim3) in intra-tumor T cells [2]: increased expression
- T cell killing of UAP1 KO cells compared to wt cells [3]: more efficiently killed
- tumor response ([4]; combination of UAP1 gene knockout and CEA TCB): complete tumor regression
- tumor response ([4]; mice treated with CEA-TCB only): incomplete tumor growth control
